Target: nat1_yeast NAT1 (UniProt P12945)
Sequence (P12945 whole entry): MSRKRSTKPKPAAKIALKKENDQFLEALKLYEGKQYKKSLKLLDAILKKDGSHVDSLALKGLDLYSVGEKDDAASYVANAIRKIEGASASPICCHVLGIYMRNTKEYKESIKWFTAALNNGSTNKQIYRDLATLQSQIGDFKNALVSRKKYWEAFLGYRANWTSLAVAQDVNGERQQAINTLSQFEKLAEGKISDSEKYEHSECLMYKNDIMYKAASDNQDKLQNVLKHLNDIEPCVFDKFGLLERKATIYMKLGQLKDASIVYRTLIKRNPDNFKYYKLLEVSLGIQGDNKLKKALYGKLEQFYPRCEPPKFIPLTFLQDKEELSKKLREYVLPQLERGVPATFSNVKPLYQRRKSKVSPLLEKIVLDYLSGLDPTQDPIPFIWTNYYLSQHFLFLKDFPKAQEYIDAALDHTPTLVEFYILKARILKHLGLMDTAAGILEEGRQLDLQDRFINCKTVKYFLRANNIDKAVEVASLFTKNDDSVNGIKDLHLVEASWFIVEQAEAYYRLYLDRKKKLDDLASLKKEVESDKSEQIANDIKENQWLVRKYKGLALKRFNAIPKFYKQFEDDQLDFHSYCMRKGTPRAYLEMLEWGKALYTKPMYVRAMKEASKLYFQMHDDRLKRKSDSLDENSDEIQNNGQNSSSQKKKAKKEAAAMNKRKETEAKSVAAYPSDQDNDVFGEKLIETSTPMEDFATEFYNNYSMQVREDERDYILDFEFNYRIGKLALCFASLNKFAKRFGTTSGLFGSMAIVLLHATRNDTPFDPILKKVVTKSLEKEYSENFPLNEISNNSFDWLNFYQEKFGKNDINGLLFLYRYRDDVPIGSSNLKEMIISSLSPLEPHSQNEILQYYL

Sequence of Large ribosomal subunit protein uL4A (Saccharomyces cerevisiae), P10664 S2K (P10664 whole entry S2K): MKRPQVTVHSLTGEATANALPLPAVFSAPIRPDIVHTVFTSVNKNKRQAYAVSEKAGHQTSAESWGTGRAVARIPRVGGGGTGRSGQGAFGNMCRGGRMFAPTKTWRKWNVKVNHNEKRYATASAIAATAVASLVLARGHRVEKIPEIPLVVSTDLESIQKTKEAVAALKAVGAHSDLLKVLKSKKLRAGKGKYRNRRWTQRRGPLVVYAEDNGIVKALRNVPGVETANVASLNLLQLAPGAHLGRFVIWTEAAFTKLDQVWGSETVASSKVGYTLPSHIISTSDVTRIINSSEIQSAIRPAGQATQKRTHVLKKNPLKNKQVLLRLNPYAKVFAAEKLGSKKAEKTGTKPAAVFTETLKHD

Substance: Large ribosomal subunit protein uL4A (Saccharomyces cerevisiae), P10664 S2K
- effect of a mutation on the interaction: increasing interaction
